Holding throughout (details): FA: 50 mM NaCl, 50 mM Tris-HCl pH 8.0, 5 mM DTT, 5 mM MgCl2, room temp, 30 nM FAM substrate, EMSA: 10 mM NaCl, 0.2 mM EDTA, 5 mM b-mercaptoethanol, 0.1% NP-40 …
Series [1] relates to PARP2 (mouse). The series is described as follows: fluorescence anisotropy. Background: Fluorescence polarisation rises when a labelled molecule tumbles more slowly, as on binding a larger partner.
Series [2] deals with PARP1 (human). The series is described as follows: fluorescence anisotropy.
Series [3] deals with PARP2 (mouse). The series is described as follows: EMSA.
Series [4] deals with PARP1 (human). The experiment in a line: EMSA.
The mark [5] stands for this setting: AP site at the U of primer S1 (UDG-generated).
[6] abbreviates: AP site at the U of primer S1 (UDG-generated), midward-oriented.
Where [7] appears, read: AP site at the U of primer S3 (UDG-generated).
Where [8] appears, read: AP site at the U of primer S3 (UDG-generated), outward-oriented.
Setting [9] is: single-nt gap with 5'-dRP at the U of primer S1 (UDG + APE1).
Setting [10] is: single-nt gap with 5'-dRP at the U of primer S1 (UDG + APE1), midward-oriented.
Where [11] appears, read: single-nt gap with 5'-dRP at the U of primer S3 (UDG + APE1).
Where [12] appears, read: single-nt gap with 5'-dRP at the U of primer S3 (UDG + APE1), outward-oriented.

For AP mid-DNA, the dissociation constant (Kd) in series [1] (setting [5]) was 690 nM; in series [2] (setting [5]), 23 nM.

Take AP mid-NCP: the Kd in series [1] (setting [6]) came to 162 nM; in series [2] (setting [6]), 12 nM.

As for AP out-DNA, the Kd in series [1] (setting [7]) was 811 nM; in series [2] (setting [7]) it was 23 nM.

Turning to AP out-NCP, the Kd in series [3] (setting [8]) came out at 130 nM; in series [4] (setting [8]), 61 nM; in series [1] (setting [8]), 160 nM; in series [2] (setting [8]), 7 nM.

In the case of gap mid-DNA, the Kd in series [1] (setting [9]) came out at 145 nM; in series [2] (setting [9]) it was 25 nM.

For gap mid-NCP, the dissociation constant (Kd) in series [1] (setting [10]) worked out at 128 nM; in series [2] (setting [10]) it was 14 nM.

On to gap out-DNA, for which the dissociation constant (Kd) in series [1] (setting [11]) worked out at 58 nM; in series [2] (setting [11]), 29 nM.

For gap out-NCP, the Kd in series [3] (setting [12]) was 57 nM; in series [4] (setting [12]) it was 38 nM; in series [1] (setting [12]), 14 nM; in series [2] (setting [12]), 10 nM.

For the substance native mid-DNA, the dissociation constant (Kd) in series [1] was 608 nM; in series [2] it was 14 nM.

For the substance native mid-NCP, the Kd in series [1] came to 151 nM; in series [2] it was 11 nM.

Consider native out-DNA, for which the figures for the Kd in series [1] and in series [2] were 839 nM and 14 nM, respectively.

As to native out-NCP, the dissociation constant Kd in series [3] stood at 192 nM; in series [4], 65 nM; in series [1], 156 nM; in series [2], 14 nM.

The term Kd denotes the free concentration of one partner at which half of the binding sites on the other are occupied at equilibrium, for simple one-to-one binding.

Values taken from paper PMC7921663.
